Assay results published in the nanobody polyreactivity screen of Harvey et al. (2022).

Test: yeast display, Sf9 membrane polyspecificity reagent, FACS + sequencing; frameworks hold sequencing errors
Method in brief: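 Polyreactivity labels are assigned by the sorting gate from which each nanobody was recovered. The gates were low and high (top ~1%), set on anti-HA fluorescence for expression and streptavidin fluorescence for reagent binding. Before sorting, galactose-induced (36–48 hours) yeast display cells were stained for 1 hour at 4 °C with 10% biotinylated, detergent-solubilized Sf9 membrane reagent.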

With “QVQLVESGGGLVQAGGSLRLSCAASGLIFRFYAMGWYRQAPGKERELVAAISGGGGSTYYADSVKGRFTISRDNAKNTVYFQMNSLKPEDTAVYYCNTVNDKRAYGKMGYWGQGTQVTVSS” the “polyreactivity (PSR sort gate)” value was “high polyreactivity”.
For “QVQLVESGGGIVQAGGSLRLSCAASGSISFLYTMGWYRQAPGKERELVAAITGSTASTYYADSVKGRFTISRDNAKNTVYLQMNSLKPEDTAVYYCAAYWYAEGYWVSRDYWGQGTQVTVSS”, the “polyreactivity (PSR sort gate)” value was “low polyreactivity”.
For “QVQLVESGGGLVQAGGSLRLSCCASGRTFLDNALGWYRQAPGKERQLVAAISGGGGTYYADSVKGRFTISRDNAKNTVYLQMNSLKPEDTAVYYCATDRGHKWVFYVTYYRYESWGQGTQVTVSS”, the “polyreactivity (PSR sort gate)” value was “low polyreactivity”.
With “QVQLVESGGGLVQAGGSLRLSCAASGSTFTLYALGWYRQAPGKERELVASITWSGSPYADSVKGRFTISRDNAKNTVYLQMNSLIPEDTAVYYCNTDPRSVVGWYDYWGQGTQVTVSS” the “polyreactivity (PSR sort gate)” value was “low polyreactivity”.
With “QVQLVESGGGLVQAGGSLRLSCAASGFIFAYNAMGWYRQAPGKEREFVAAINSGGDSTYYADSVKGRFTISRDYANNTVYLQMNSLKPEDTAVYSCAAVIGNKRYYYWGQGTQVTVSS” the “polyreactivity (PSR sort gate)” value was “low polyreactivity”.
With “QVQLVESGGGLVQAGGSLRFSCAASGSTFGTYAMGWYRQAPGKERELVAAITSGGSTDYADSVKGRFTISRDNAKNTVYLQMNSLKPEDTAVYYCNATWELLSYYYLFWGYDYWGQGTQVTVSS” the “polyreactivity (PSR sort gate)” value was “low polyreactivity”.
For “QVQLQESVGGLVQAGGTLRMSCAASGSFSADEDMGWYRQAQGKEREFVAGISVGGNTNYADSVKGRFTISRENAKNTVYLQINSLKPEETAVYYCAADYKPTSRSNTYYYWGQGTQVTVSS”, the “polyreactivity (PSR sort gate)” value was “high polyreactivity”.
With “QVQLVESGGGLVQAGGSLRLSCAASGLIFYDNMGWYRQAPGKERELVAAISSSGGSTSYADSVKGRFTISRDNAKKTVYLQMNSLKPEDTAVYYCAAKWSHVRDGPKYDYWGQGTQVTVSS” the “polyreactivity (PSR sort gate)” value was “low polyreactivity”.
With “QVQLVESGGGLVQAGGSLRLSCAASGIIFAYYAMGWYRQAPGKVRELVASITNTGSTYYADSVKGRFTISRDNAKNTVYLQMNSLKPEDTAVYYCNAVLSSNTKWRYPGDYWGQGTQVTVSS” the “polyreactivity (PSR sort gate)” value was “low polyreactivity”.
In the case of “QVQLVESGGGLVQAGGSLRLSCAASGFTFYRNAMGWYRQAPGKERELVAAISGSGGRTYADSVKGRFTISRDIAKNTVYLQMNSLKPEDTAVYYCAASGYSSYRRYSTSNGYWGQGTQVTVSS”, the “polyreactivity (PSR sort gate)” value is reported as “high polyreactivity”.
In the case of “QVQLVESGGGLVQAGGSLRLSCAASGSTFASYAMGWYRQAPGKETELVASITRRGCSTDYADSVKGRFTISRDNAKNTVDFPMNLLKPEDTAVYYCATYSYPERTGGHRTHYYWGQGTQVTVSS”, the “polyreactivity (PSR sort gate)” value is reported as “high polyreactivity”.
For “QVQLVESGGGLVQAGGSLRLSCAASGSIFSYYAMGWYRQAPGKERELVASITSGGSTNYADSVKGRFTISRDNAKNTVYLQMNSLKPEDTAVYYCNKDGKYHRVLYDYWGQGTQVTVSS”, the “polyreactivity (PSR sort gate)” value was “low polyreactivity”.
With “QVQLVESGGGLVQAGGSLRLSCAASGSTLNSYVMGWYRQAPGKERELVATIRSGSSTNYADSVNGRFTISRDNAKNTVYLQMNSLKPEDTAVYYCAADAYSLCYDSWGQGTQVTVSS” the “polyreactivity (PSR sort gate)” value was “low polyreactivity”.
For “QVQLVESAGGLVQAGGSLRLSCAASGRIFDRYTMGCYRQAPGKERELVAAITFGGGSTYYADSVKGRFTISRDNAKNTVYLQMNSLKPEDTAVYYCAKQRHGKLGHILGYNYWGQGTQVTVSS”, the “polyreactivity (PSR sort gate)” value was “low polyreactivity”.
With “QVQLVESGGGLVQAGGSLRLSCAASGRTLWVYAMGWYRQAPGKERELVAAITSSGVSTDYADSVKGRFTISRDNAKNTVYLQINSLKPEDTAVYYCAKRYWSRYAQYDYWGQGTQVTVSS” the “polyreactivity (PSR sort gate)” value was “low polyreactivity”.
For “QVQLVESGGGLVQAGGSLRLSCAASGRIFYWYAMGWYRKAPGKERELVAAIIWSGGSSYYADSVKGRFTISRDNAKNTVYLQMNSLKPEDTAVYYSAADRILEMGYWGQGTQVTVSS”, the “polyreactivity (PSR sort gate)” value was “low polyreactivity”.
In the case of “QVQLVESGGGLVQAGGSLRLSCAASGRTSVIYAMGWYRQAPGKERELVASIRRGGSTSYADSVKGRFTISRDNAKNTVYLQMNSLKPEDTAVYYCAARKRSVYGTEYDYWGQGTQVTVSS”, the “polyreactivity (PSR sort gate)” value is reported as “high polyreactivity”.
In the case of “QVQLVESGGGLVQAGGSLRLSCAASGRTIRSYAMGRSRQAPGKEREWVAAISWSGGRTYYADSVKGRFTISRDNAKYTVYLQMTSLKPEDTADYYCAARVSVGVPRYEYWGQGTQVTVSA”, the “polyreactivity (PSR sort gate)” value is reported as “high polyreactivity”.
In the case of “QVQLEESGARIVQAGGSLRLSCAASGITLAGYVMGWYRQAPGKERELVADISSSGDSTYYADSVNGRFTISRDNAKNTVYLQMNSLKPEDTAVYYCAAEEIIPLIYKGYPFDYWGQATQVTVSS”, the “polyreactivity (PSR sort gate)” value is reported as “low polyreactivity”.
For “QVQLVESGGGFFQAGGSLRLSCAASGSTFGYYTMGWYRQAPGKERELVAAISSGGSRTNYADSVKGRFTISRDNAKNTVYLQMNILKPEDTAVYYCARQSYGGTNRYYYWGQGTQVTVSS”, the “polyreactivity (PSR sort gate)” value was “high polyreactivity”.
With “QVQLVESGGGLVQEGGSLLLSFAASGSTFGYYAMGWYRQAPGKEREFVAAISDSGDGTYYADSVKGRFTISRDNEKNTVYLQMNSLKQEDTAVYYCAAEAPYYFGWWYGYKYDSWGQGTQVTVSW” the “polyreactivity (PSR sort gate)” value was “high polyreactivity”.
With “QVQLVESGGGLVQAGGSLRLSCAASGIIFYPYAMGWYRQAPGKESELVADITSGGGTNYAYSVKGRITISRDNAKNTVYLQMNSLKQEDTAVYYCAAEVRGYHWGTYYEFYYWGQGTQVTVSS” the “polyreactivity (PSR sort gate)” value was “low polyreactivity”.
In the case of “QVQLVESGGRLVQAGGSLRLSCAASGRIFVRNAKGWYRQAPGKERELVADITNGGSTNYADSVKGRFTISRDNAKNTVYLQMNSLKPEDTAVVYWAADTLGVYDGDYWGQGTQVTVSS”, the “polyreactivity (PSR sort gate)” value is reported as “low polyreactivity”.
For “QVQLVESGGGLVQAGGSLRLSCAASGRTFQGYAMGWYRQATGKERELVAAISRSGGRTYYADSVKGRFTISRDNAKNTVYLQMNSLKPEDTAVYYCATDAFRDYGYWGQGTQVTVSS”, the “polyreactivity (PSR sort gate)” value was “high polyreactivity”.
With “QVQLVESGGGLVQAGGSLRLSCAASGSIFTPNVKGRYRQAPGKERELVAAISQSGGSTFYADSVKGRFSFSRDNAKKTVYLQMNSLKPEDTAVYYCASEYYGPVYDLDFDYWGQGTQVTVSS” the “polyreactivity (PSR sort gate)” value was “low polyreactivity”.
With “QVQLVESGGGLVEAGGSLRLSCAASGSILIYVMGWYRQAPGKERDLFASITFSGGSTYYADSVKGRFTISRDNAKNSVYLQMYRLKPEVTAVYYCAAVPLWDYKFFYYLLYDYWGQGTQVTVSS” the “polyreactivity (PSR sort gate)” value was “low polyreactivity”.
With “QVQLVESGGGLVQAGGSLRLSCAASGSIFRYYAMGWYRQAPGKERELVASITRRGGSTYYADSVKGRFTISRDNAKNTVYLQMTSLKPEDTAVYYCAAHKTYVRDYYWGQGTQVTVSS” the “polyreactivity (PSR sort gate)” value was “high polyreactivity”.
In the case of “QVQLVESGGGLVQAGGSLRLSCAASGSTFYQYAMGWYRQAPGKERELVAAISRSGSTNYADSVKGRFTISRDNAKNTVYLQMNSLKPEDTAVYDCAARLGTRQYKMDYWGQGTQVTVSS”, the “polyreactivity (PSR sort gate)” value is reported as “high polyreactivity”.
For “QVQHVESGGGLVQAGGSLRLSCAASGRIFNLYAMGWYRQAPGKERELVAAIRGRGTSTYYADSVKGRFTISSDNAKNTVFLQINSLKPEDTAVYYCAREGGYGPTLQDTSRYEYCGQGTQVTVSS”, the “polyreactivity (PSR sort gate)” value was “low polyreactivity”.
With “QVQLVESGGGLVQAGGSLRLSCAASGIIFYLYTIGWYRQAPGKEREFVADISSGTTTYYADSVKGRFTISRDNAKNTVYLQMNSLKPEDTAVYYCNAQYNYYTWKLAYTFDYWGQGTQVTVSS” the “polyreactivity (PSR sort gate)” value was “high polyreactivity”.
For “QVQLVESGGGLVQSGGSLRLSCAASGSTFLWYAMGWYRPAPGKERELVASISRGGGTDYADSVKGRFTISRDNAKKTVYLQMNSLIPEDTAVYYCAATGVYRYDHWGQGTQVTVSS”, the “polyreactivity (PSR sort gate)” value was “low polyreactivity”.
With “QVQLVESGGGLVQAGVSLRLICAASGRIFALNTMGWYRQAPGKEREFVAAITTSGGSTYADSVKGRFTISRDNAKNTVYFQMNSLKPEYTAVYYFNKEYFHNWAPTYDYWGQGTQVTVSS” the “polyreactivity (PSR sort gate)” value was “low polyreactivity”.
For “QVQLVESGGGLVQAGGSLRLSCAASGLIFWYYAMGWYRQAPGKERELVAVITRSDASTYYADSVKGRFTISRDNAKNTVYVQMNSLKPEDTAVYYCAAYIRYGYSPWGYDYWGQGTQVSVSS”, the “polyreactivity (PSR sort gate)” value was “low polyreactivity”.
With “QVQLVESGGGLVQAGGSLRLSCAASGSIFTYYAMGWYRQAPGKERELVAGITRGGSTYYAESVKGRFTISRDNAKNTVYLQMNSLKPEDTAVYYCNARWVLFYTGDGQEHDYWGQGTQVTVSS” the “polyreactivity (PSR sort gate)” value was “low polyreactivity”.
With “QVQLVESGGGLVQAGGSLRLSCAASGSTFGYYTMGWYRQAPGKERELVAAISYSGGRTFYADSVKGRFTISRDNAKNTVFLQMHCLKPEDTAVYYCNNRYIPSFLSHLDYWGQGTHVTVSS” the “polyreactivity (PSR sort gate)” value was “high polyreactivity”.
For “QVQLVESGGGLVQAGGSLRLSCAASGRTFWPYAMGWYRQAPGKERELVAAITSDGSTTYADSVTGRFTISRDNAKNTVYLQMNSLTPEDTAVYYCAAYGYYYDQTIPMDYWGQGTQVTVSS”, the “polyreactivity (PSR sort gate)” value was “low polyreactivity”.
With “QVQLVESGGGLVQAGGSLRLSCAASGFTFRVNAMGWYRQAPGKESELVAAISSGGGITYYADSVKGRFTISRDNAKNTVYLQMNSLKPEDTAVYYCAARENRYLERDYWGQGTQVTVSS” the “polyreactivity (PSR sort gate)” value was “low polyreactivity”.
For “QVQLVESGGGLVQAGGSLRLSCAASGGIFRLYGMGWYRQAPGKERELVAAIRQSGGRTYYADSVKGRFTISRDNAKNTDYLQMNSLKPEDTAVYYCAADLLYRSSGTVRSDYSRYDYWGQGTQVTVSS”, the “polyreactivity (PSR sort gate)” value was “low polyreactivity”.
With “QVQLVESGGGLVQAGGSLRLSCAASGSIFVIYAMGWYRQAPGKERELVAAISRSGGRTYYADSVKGRFTISRDNAKNTVYLQMNSLKPEDTAVYYCAAEGSTYQGAPGVYYWGQGTQVTVSS” the “polyreactivity (PSR sort gate)” value was “high polyreactivity”.
With “QVQLVESGVGLVQAVGSLRLSCAASGIILHYYAMGWYRQAPGKERELVAAISARGGRTYYADSVKGRFTISRDNAKNTVYLQMNSLKPEDTAVYYCAKDTRRSGVSTYTGNMDYWGHGTQVTVSS” the “polyreactivity (PSR sort gate)” value was “high polyreactivity”.
With “QVQLVESGGGLVQAGGSLRLSCAASGRTFRWYAMGWSRPAPGKERELVASISRGGSKSYADSVKGRFTISRDNAKNTVYLQMNSLKPEDTAVYYCNAKYRLEMDLGQGTQVTVSS” the “polyreactivity (PSR sort gate)” value was “high polyreactivity”.
In the case of “QVQLVESGGGLVQAGGSLRLSCAASGRSFYRYVMGWYRQAPGTERELVAAMTWSGGSTYYADSVKGRFTISRDNAKNTVYLQMNSLKPEDTAVYYCAADWSTWGVDYWGQGTQVTVSS”, the “polyreactivity (PSR sort gate)” value is reported as “low polyreactivity”.
For “QVQLVESGGGLVQAGGSLRLSCAASGSIFARNAMGWYRQAPGKERELVAAISWSGGRTYYADSVKGRFTISRDNAKNTVYLQMNSLKPEDTAVYYCATDTWWGQGTQVTVSS”, the “polyreactivity (PSR sort gate)” value was “high polyreactivity”.
